System: target antigen-expressing cell line
Assay: Jurkat NFAT-GFP assay, coculture with target cell lines expressing the respective target antigen (summary Table 10A)
Assay type: cell-based, human
Parameters: key: The signs +/−, +, 2+ etc. after the name of the cell lines indicate the relative degree of positivity on the Jurkat-NFAT-GFP assay as measured by the % GFP positive cells; +: relative degree of positivity on the Jurkat-NFAT-GFP assay as measured by the % GFP positive cells; 2+: relative degree of positivity on the Jurkat-NFAT-GFP assay as measured by the % GFP positive cells
Details: relative % GFP positive cells; for NFAT-GFP ASSAY Positive Cell lines: RAJI: SIR-expressing Jurkat-NFAT-GFP cells cocultured with RAJI; for NFAT-GFP ASSAY Positive Cell lines: NALM6: SIR-expressing Jurkat-NFAT-GFP cells cocultured with NALM6
How it was run: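 Positivity is scored when SIR-expressing reporter Jurkat cells show more GFP-positive cells than parental controls after coculture with the antigen-bearing line. Effector-to-target ratio is about 1:2, coculture lasts roughly 4–18 hours, and GFP is quantified by FACS.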

B1: 040716-I04 (protein)
chain: MALPVTALLLPLALLLHAARPDEIVLTQSPATLSLSPGERATLSCSASSSVSYMHWYQQKPGQAPRLLIYDTSKLASGIPARFSGSGSGTDFTLTISSLEPEDVAVYYCFQGSVYPFTFGQGTKLEIKRGGGGSGGGGSGGGGSQVQLQESGPGLVKPSQTLSLTCTVSGGSISTSGMGVGWIRQHPGKGLEWIGHIWWDDDKRYNPALKSRVTISVDTSKNQFSLKLSSVTAADTAVYYCARMELWSYYFDYWGQGTLVTVSSLEGKPIPNPLLGLDSTGSGEDLKNVFPPEVAVFEPSKAEIAHTQKATLVCLATGFYPDHVELSWWVNGKEVHSGVCTDPQPLKEQPALNDSRYCLSSRLRVSATFWQNPRNHFRCQVQFYGLSENDEWTQDRAKPVTQIVSAEAWGRADCGITSASYHQGVLSATILYEILLGKATLYAVLVSALVLMAMVKRKDSRGRAKRSGSGATNFSLLKQAGDVEENPGPTSTMALPVTALLLPLALLLHAARPDIVMTQTPLTLSVTIGQPASISCKSSQSLLDSDGKTYLNWLLQRPGQSPERLIYLVSKLDSGVPDRFTGSGSGTDFTLKISRVEAEDLGVYCCWQGTHFPYTFGGGTKVEIKGGGGGSGGGGSGGGGSQVQLQQPGAELVRPGASVKLSCKASGYTFTSYWMNWVKQRPGQGLEWIGMIDPSDSETHYNHIFKDKATLTVDKSSSTAYLQLSSLTSEDSAVYYCARNLYLWGQGTSVTVSSTREQKLISEEDGSGIQNPDPAVYQLRDSKSSDKSVCLFTDFDSQTNVSQSKDSDVYITDKCVLDMRSMDFKSNSAVAWSNKSDFACANAFNNSIIPEDTFFPSSDVPCDVKLVEKSFETDTNLNFQNLSVIGFRILLLKVAGFNLLMTLRLWSSRAKRSGSGVKQTLNFDLLKLAGDVESNPGPSRGHMTEYKPTVRLATRDDVPRAVRTLAAAFADYPATRHTVDPDRHIERVTELQELFLTRVGLDIGKVWVADDGAAVAVWTTPESVEAGAVFAEIGPRMAELSGSRLAAQQQMEGLLAPHRPKEPAWFLATVGVSPDHQGKGLGSAVVLPGVEAAERAGVPAFLETSAPRNLPFYERLGFTVTADVEVPEGPRTWCMTRKPGA
modifications: Synthetic polynucleotide encoding a SIR
SIR-expressing Jurkat-NFAT-GFP cells cocultured with L363
  NFAT-GFP ASSAY Positive Cell lines: L363: (+/−), L363 (+/−)
  NFAT-GFP ASSAY Positive Cell lines: RAJI: RAJI (+/−), U266
SIR-expressing Jurkat-NFAT-GFP cells cocultured with U266
  NFAT-GFP ASSAY Positive Cell lines: U266: (+/−), L363 (+/−)

B2: 041216 G04 (protein)
chain: MALPVTALLLPLALLLHAARPDEIVLTQSPATLSLSPGERATLSCSASSSVSYMHWYQQKPGQAPRLLIYDTSKLASGIPARFSGSGSGTDFTLTISSLEPEDVAVYYCFQGSVYPFTFGQGTKLEIKRGGGGSGGGGSGGGGSQVQLQESGPGLVKPSQTLSLTCTVSGGSISTSGMGVGWIRQHPGKGLEWIGHIWWDDDKRYNPALKSRVTISVDTSKNQFSLKLSSVTAADTAVYYCARMELWSYYFDYWGQGTLVTVSSLEGKPIPNPLLGLDSTGSGEDLKNVFPPEVAVFEPSKAEIAHTQKATLVCLATGFYPDHVELSWWVNGKEVHSGVCTDPQPLKEQPALNDSRYCLSSRLRVSATFWQNPRNHFRCQVQFYGLSENDEWTQDRAKPVTQIVSAEAWGRADCGITSASYHQGVLSATILYEILLGKATLYAVLVSALVLMAMVKRKDSRGRAKRSGSGATNFSLLKQAGDVEENPGPTSMDWIWRILFLVGAATGAHSFEVQLVESGGGLVQAGGSLRLSCAASGSIFSGNVMGWYRRQAPGKEREWVAAIASGGSIYYRDSVKGRFTISRDNAKNTVYLQMNSLKPEDTAVYYCNSHPPTLPYWGLGTQVTVSSTREQKLISEEDGSGIQNPDPAVYQLRDSKSSDKSVCLFTDFDSQTNVSQSKDSDVYITDKCVLDMRSMDFKSNSAVAWSNKSDFACANAFNNSIIPEDTFFPSSDVPCDVKLVEKSFETDTNLNFQNLSVIGFRILLLKVAGFNLLMTLRLWSSRAKRSGSGVKQTLNFDLLKLAGDVESNPGPSRGHMTEYKPTVRLATRDDVPRAVRTLAAAFADYPATRHTVDPDRHIERVTELQELFLTRVGLDIGKVWVADDGAAVAVWTTPESVEAGAVFAEIGPRMAELSGSRLAAQQQMEGLLAPHRPKEPAWFLATVGVSPDHQGKGLGSAVVLPGVEAAERAGVPAFLETSAPRNLPFYERLGFTVTADVEVPEGPRTWCMTRKPGA
modifications: Synthetic polynucleotide encoding a SIR
  NFAT-GFP ASSAY Positive Cell lines: RAJI: RAJI (+/−)

B3: 030217-E05 (protein)
chain: MALPVTALLLPLALLLHAARPDEIVLTQSPATLSLSPGERATLSCSASSSVSYMHWYQQKPGQAPRLLIYDTSKLASGIPARFSGSGSGTDFTLTISSLEPEDVAVYYCFQGSVYPFTFGQGTKLEIKRGGGGSGGGGSGGGGSQVQLQESGPGLVKPSQTLSLTCTVSGGSISTSGMGVGWIRQHPGKGLEWIGHIWWDDDKRYNPALKSRVTISVDTSKNQFSLKLSSVTAADTAVYYCARMELWSYYFDYWGQGTLVTVSSLEGKPIPNPLLGLDSTGSGEDLKNVFPPEVAVFEPSKAEIAHTQKATLVCLATGFYPDHVELSWWVNGKEVHSGVCTDPQPLKEQPALNDSRYCLSSRLRVSATFWQNPRNHFRCQVQFYGLSENDEWTQDRAKPVTQIVSAEAWGRADCGITSASYHQGVLSATILYEILLGKATLYAVLVSALVLMAMVKRKDSRGRAKRSGSGATNFSLLKQAGDVEENPGPTSTMALPVTALLLPLALLLHAARPDEIVLTQSPGSLAVSPGERVTMSCKSSQSVFFSSSQKNYLAWYQQIPGQSPRLLIYWASTRESGVPDRFTGSGSGTDFTLTISSVQPEDLAIYYCHQYLSSRTFGQGTKLEIKRGGGGSGGGGSGGGGSQVQLQQPGAEVVKPGASVKMSCKASGYTFTSYYIHWIKQTPGQGLEWVGVIYPGNDDISYNQKFQGKATLTADKSSTTAYMQLSSLTSEDSAVYYCAREVRLRYFDVWGQVTTVTVSSTREQKLISEEDGSGIQNPDPAVYQLRDSKSSDKSVCLFTDFDSQTNVSQSKDSDVYITDKCVLDMRSMDFKSNSAVAWSNKSDFACANAFNNSIIPEDTFFPSSDVPCDVKLVEKSFETDTNLNFQNLSVIGFRILLLKVAGFNLLMTLRLWSSRAKRSGSGVKQTLNFDLLKLAGDVESNPGPSRGHMTEYKPTVRLATRDDVPRAVRTLAAAFADYPATRHTVDPDRHIERVTELQELFLTRVGLDIGKVWVADDGAAVAVWTTPESVEAGAVFAEIGPRMAELSGSRLAAQQQMEGLLAPHRPKEPAWFLATVGVSPDHQGKGLGSAVVLPGVEAAERAGVPAFLETSAPRNLPFYERLGFTVTADVEVPEGPRTWCMTRKPGA
  NFAT-GFP ASSAY Positive Cell lines: RAJI: RAJI (+)

B4: 030217-G04 (protein)
chain: MALPVTALLLPLALLLHAARPDEIVLTQSPATLSLSPGERATLSCSASSSVSYMHWYQQKPGQAPRLLIYDTSKLASGIPARFSGSGSGTDFTLTISSLEPEDVAVYYCFQGSVYPFTFGQGTKLEIKRGGGGSGGGGSGGGGSQVQLQESGPGLVKPSQTLSLTCTVSGGSISTSGMGVGWIRQHPGKGLEWIGHIWWDDDKRYNPALKSRVTISVDTSKNQFSLKLSSVTAADTAVYYCARMELWSYYFDYWGQGTLVTVSSLEGKPIPNPLLGLDSTGSGEDLKNVFPPEVAVFEPSKAEIAHTQKATLVCLATGFYPDHVELSWWVNGKEVHSGVCTDPQPLKEQPALNDSRYCLSSRLRVSATFWQNPRNHFRCQVQFYGLSENDEWTQDRAKPVTQIVSAEAWGRADCGITSASYHQGVLSATILYEILLGKATLYAVLVSALVLMAMVKRKDSRGRAKRSGSGATNFSLLKQAGDVEENPGPTSMALPVTALLLPLALLLHAARPDDIVMTQSPDSLTVSLGERTTINCKSSQSVLDSSKNKNSLAWYQQKPGQPPKLLLSWASTRESGIPDRFSGSGSGTDFTLTIDSLQPEDSATYYCQQSAHFPITFGQGTRLEIKGGGGSGGGGSGGGGSQVQLVQSGAEVKKPGASVKVSCKASGYTFTNYGMNWVKQAPGQGLKWMGWINTYTGEPTYADDFKGRVTMTSDTSTSTAYLELHNLRSDDTAVYYCARWSWSDGYYVYFDYWGQGTTVTVSSTREQKLISEEDGSGIQNPDPAVYQLRDSKSSDKSVCLFTDFDSQTNVSQSKDSDVYITDKCVLDMRSMDFKSNSAVAWSNKSDFACANAFNNSIIPEDTFFPSSDVPCDVKLVEKSFETDTNLNFQNLSVIGFRILLLKVAGFNLLMTLRLWSSRAKRSGSGVKQTLNFDLLKLAGDVESNPGPSRGHMTEYKPTVRLATRDDVPRAVRTLAAAFADYPATRHTVDPDRHIERVTELQELFLTRVGLDIGKVWVADDGAAVAVWTTPESVEAGAVFAEIGPRMAELSGSRLAAQQQMEGLLAPHRPKEPAWFLATVGVSPDHQGKGLGSAVVLPGVEAAERAGVPAFLETSAPRNLPFYERLGFTVTADVEVPEGPRTWCMTRKPGA
  NFAT-GFP ASSAY Positive Cell lines: NALM6: RAJI (+), NALM6 (+)
  NFAT-GFP ASSAY Positive Cell lines: RAJI: RAJI (+), NALM6 (+)

B5: 030217-H02 (protein)
chain: MALPVTALLLPLALLLHAARPDEIVLTQSPATLSLSPGERATLSCSASSSVSYMHWYQQKPGQAPRLLIYDTSKLASGIPARFSGSGSGTDFTLTISSLEPEDVAVYYCFQGSVYPFTFGQGTKLEIKRGGGGSGGGGSGGGGSQVQLQESGPGLVKPSQTLSLTCTVSGGSISTSGMGVGWIRQHPGKGLEWIGHIWWDDDKRYNPALKSRVTISVDTSKNQFSLKLSSVTAADTAVYYCARMELWSYYFDYWGQGTLVTVSSLEGKPIPNPLLGLDSTGSGEDLKNVFPPEVAVFEPSKAEIAHTQKATLVCLATGFYPDHVELSWWVNGKEVHSGVCTDPQPLKEQPALNDSRYCLSSRLRVSATFWQNPRNHFRCQVQFYGLSENDEWTQDRAKPVTQIVSAEAWGRADCGITSASYHQGVLSATILYEILLGKATLYAVLVSALVLMAMVKRKDSRGRAKRSGSGATNFSLLKQAGDVEENPGPTSMALPVTALLLPLALLLHAARPDIQMTQSTSSLSASLGDRVTISCSASQGINNYLNWYQQKPDGTVELLIYYTSTLQSGVPSRFSGSGSGTDYSLTISNLEPEDIGTYYCQQYSKLPRTFGGGTKLEIKGGGGSGGGGSGGGGSQVQLQQSGSELMMPGASVKISCKATGYTFSNYWIEWVKQRPGHGLEWIGEILPGTGRTIYNEKFKGKATFTADISSNTVQMQLSSLTSEDSAVYYCARRDYYGNFYYAMDYWGQGTSVTVSSTREQKLISEEDGSGIQNPDPAVYQLRDSKSSDKSVCLFTDFDSQTNVSQSKDSDVYITDKCVLDMRSMDFKSNSAVAWSNKSDFACANAFNNSIIPEDTFFPSSDVPCDVKLVEKSFETDTNLNFQNLSVIGFRILLLKVAGFNLLMTLRLWSSRAKRSGSGVKQTLNFDLLKLAGDVESNPGPSRGHMTEYKPTVRLATRDDVPRAVRTLAAAFADYPATRHTVDPDRHIERVTELQELFLTRVGLDIGKVWVADDGAAVAVWTTPESVEAGAVFAEIGPRMAELSGSRLAAQQQMEGLLAPHRPKEPAWFLATVGVSPDHQGKGLGSAVVLPGVEAAERAGVPAFLETSAPRNLPFYERLGFTVTADVEVPEGPRTWCMTRKPGA
  NFAT-GFP ASSAY Positive Cell lines: NALM6: (+)
  NFAT-GFP ASSAY Positive Cell lines: RAJI: RAJI (2+), NALM6
